{
  "source": "ChEMBL document CHEMBL1157388",
  "about": "“Recent developments in fragment-based drug discovery” (J Med Chem, 2008)",
  "proteins": {"B1": {"name": "Receptor-type tyrosine-protein phosphatase beta (Homo sapiens), P23467 (protein)", "chain": "MLSHGAGLALWITLSLLQTGLAEPERCNFTLAESKASSHSVSIQWRILGSPCNFSLIYSSDTLGAALCPTFRIDNTTYGCNLQDLQAGTIYNFRIISLDEERTVVLQTDPLPPARFGVSKEKTTSTSLHVWWTPSSGKVTSYEVQLFDENNQKIQGVQIQESTSWNEYTFFNLTAGSKYNIAITAVSGGKRSFSVYTNGSTVPSPVKDIGISTKANSLLISWSHGSGNVERYRLMLMDKGILVHGGVVDKHATSYAFHGLTPGYLYNLTVMTEAAGLQNYRWKLVRTAPMEVSNLKVTNDGSLTSLKVKWQRPPGNVDSYNITLSHKGTIKESRVLAPWITETHFKELVPGRLYQVTVSCVSGELSAQKMAVGRTFPDKVANLEANNNGRMRSLVVSWSPPAGDWEQYRILLFNDSVVLLNITVGKEETQYVMDDTGLVPGRQYEVEVIVESGNLKNSERCQGRTVPLAVLQLRVKHANETSLSIMWQTPVAEWEKYIISLADRDLLLIHKSLSKDAKEFTFTDLVPGRKYMATVTSISGDLKNSSSVKGRTVPAQVTDLHVANQGMTSSLFTNWTQAQGDVEFYQVLLIHENVVIKNESISSETSRYSFHSLKSGSLYSVVVTTVSGGISSRQVVVEGRTVPSSVSGVTVNNSGRNDYLSVSWLLAPGDVDNYEVTLSHDGKVVQSLVIAKSVRECSFSSLTPGRLYTVTITTRSGKYENHSFSQERTVPDKVQGVSVSNSARSDYLRVSWVHATGDFDHYEVTIKNKNNFIQTKSIPKSENECVFVQLVPGRLYSVTVTTKSGQYEANEQGNGRTIPEPVKDLTLRNRSTEDLHVTWSGANGDVDQYEIQLLFNDMKVFPPFHLVNTATEYRFTSLTPGRQYKILVLTISGDVQQSAFIEGFTVPSAVKNIHISPNGATDSLTVNWTPGGGDVDSYTVSAFRHSQKVDSQTIPKHVFEHTFHRLEAGEQYQIMIASVSGSLKNQINVVGRTVPASVQGVIADNAYSSYSLIVSWQKAAGVAERYDILLLTENGILLRNTSEPATTKQHKFEDLTPGKKYKIQILTVSGGLFSKEAQTEGRTVPAAVTDLRITENSTRHLSFRWTASEGELSWYNIFLYNPDGNLQERAQVDPLVQSFSFQNLLQGRMYKMVIVTHSGELSNESFIFGRTVPASVSHLRGSNRNTTDSLWFNWSPASGDFDFYELILYNPNGTKKENWKDKDLTEWRFQGLVPGRKYVLWVVTHSGDLSNKVTAESRTAPSPPSLMSFADIANTSLAITWKGPPDWTDYNDFELQWLPRDALTVFNPYNNRKSEGRIVYGLRPGRSYQFNVKTVSGDSWKTYSKPIFGSVRTKPDKIQNLHCRPQNSTAIACSWIPPDSDFDGYSIECRKMDTQEVEFSRKLEKEKSLLNIMMLVPHKRYLVSIKVQSAGMTSEVVEDSTITMIDRPPPPPPHIRVNEKDVLISKSSINFTVNCSWFSDTNGAVKYFTVVVREADGSDELKPEQQHPLPSYLEYRHNASIRVYQTNYFASKCAENPNSNSKSFNIKLGAEMESLGGKCDPTQQKFCDGPLKPHTAYRISIRAFTQLFDEDLKEFTKPLYSDTFFSLPITTESEPLFGAIEGVSAGLFLIGMLVAVVALLICRQKVSHGRERPSARLSIRRDRPLSVHLNLGQKGNRKTSCPIKINQFEGHFMKLQADSNYLLSKEYEELKDVGRNQSCDIALLPENRGKNRYNNILPYDATRVKLSNVDDDPCSDYINASYIPGNNFRREYIVTQGPLPGTKDDFWKMVWEQNVHNIVMVTQCVEKGRVKCDHYWPADQDSLYYGDLILQMLSESVLPEWTIREFKICGEEQLDAHRLIRHFHYTVWPDHGVPETTQSLIQFVRTVRDYINRSPGAGPTVVHCSAGVGRTGTFIALDRILQQLDSKDSVDIYGAVHDLRLHRVHMVQTECQYVYLHQCVRDVLRARKLRSEQENPLFPIYENVNPEYHRDPVYSRH"}},
  "key": {"[1]": {"substrate": "O=P(O)(O)Oc1ccc(-c2ccccc2)cc1"}, "[2]": {"substrate": "O=[N+]([O-])c1ccc(OP(=O)(O)O)cc1"}},
  "data": [
    {"protein": "B1", "values": [
      {"measurement": "Km", "setting": "[1]", "value": 86, "unit": "µM"},
      {"measurement": "Km", "setting": "[2]", "value": 1340, "unit": "µM"}
    ]}
  ]
}
